# Laboratory results taken from patent US20130005646A1 (Novo Nordisk, published 2013).
# Starred links: 1 amine or outer side, 2 acyl side, 3 side chain; linkers in the order of their positions; H or OH if unused. Positions of bridges follow the written chain, without caps; N, C: chain ends. *: point of attachment. X1 = (S)‑4‑Carboxy‑4‑(19-carboxynonadecanoylamino)butyryl, O=C(O)CCCCCCCCCCCCCCCCCCC(=O)N[C@@H](CCC(=O)*)C(=O)O; C20 diacid = O=C(O)CCCCCCCCCCCCCCCCCCC(=O)*; γGlu = O=C(O)[C@H](CCC(=O)[*:2])N[*:1]
# T1: human amylin 3(a) receptor (human calcitonin receptor + RAMP-3) (human, UniProt P30988 25-474; O60896 24-148)
# T1 sequence (looked up) 1: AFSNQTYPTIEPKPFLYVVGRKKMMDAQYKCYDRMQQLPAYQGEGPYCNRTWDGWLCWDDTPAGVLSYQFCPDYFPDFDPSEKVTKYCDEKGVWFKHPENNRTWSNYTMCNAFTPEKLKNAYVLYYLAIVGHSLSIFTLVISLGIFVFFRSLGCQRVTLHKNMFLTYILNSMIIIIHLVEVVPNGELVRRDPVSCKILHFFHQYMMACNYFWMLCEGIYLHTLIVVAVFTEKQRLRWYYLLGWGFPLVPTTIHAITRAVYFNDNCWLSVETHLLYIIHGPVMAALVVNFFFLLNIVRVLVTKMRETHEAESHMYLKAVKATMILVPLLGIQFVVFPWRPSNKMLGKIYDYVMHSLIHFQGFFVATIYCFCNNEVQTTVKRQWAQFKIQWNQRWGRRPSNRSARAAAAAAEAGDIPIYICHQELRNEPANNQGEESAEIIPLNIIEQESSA
# T1 sequence (looked up) 2: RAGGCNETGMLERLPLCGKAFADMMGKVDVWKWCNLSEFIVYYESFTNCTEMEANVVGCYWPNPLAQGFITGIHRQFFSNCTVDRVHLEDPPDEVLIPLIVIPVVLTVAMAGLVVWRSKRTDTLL
# T2: rat calcitonin (a) receptor (rat, UniProt P32214 25-516)
# T2 sequence (looked up): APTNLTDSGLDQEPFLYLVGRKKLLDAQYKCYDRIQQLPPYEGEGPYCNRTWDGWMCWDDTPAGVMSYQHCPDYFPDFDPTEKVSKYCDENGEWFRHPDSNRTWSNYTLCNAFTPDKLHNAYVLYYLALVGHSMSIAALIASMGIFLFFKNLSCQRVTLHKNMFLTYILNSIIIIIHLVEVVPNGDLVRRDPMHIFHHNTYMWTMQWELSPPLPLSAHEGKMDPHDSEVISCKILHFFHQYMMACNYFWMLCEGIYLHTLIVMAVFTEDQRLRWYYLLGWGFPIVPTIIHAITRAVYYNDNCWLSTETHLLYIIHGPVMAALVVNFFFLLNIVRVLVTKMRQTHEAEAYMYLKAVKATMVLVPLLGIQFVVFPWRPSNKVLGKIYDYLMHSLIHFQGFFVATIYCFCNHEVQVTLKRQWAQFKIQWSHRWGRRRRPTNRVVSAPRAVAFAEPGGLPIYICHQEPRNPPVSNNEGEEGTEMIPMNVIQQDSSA
# T3: human calcitonin (a) receptor (human, UniProt P30988 25-474)
# T3 sequence (looked up): T1 sequence (looked up) 1
# T4: rat amylin 3(a) receptor (rat calcitonin(a) receptor + rat RAMP3) (rat, UniProt P32214 25-516; Q9JJ73 23-147)
# T4 sequence (looked up) 1: T2 sequence (looked up)
# T4 sequence (looked up) 2: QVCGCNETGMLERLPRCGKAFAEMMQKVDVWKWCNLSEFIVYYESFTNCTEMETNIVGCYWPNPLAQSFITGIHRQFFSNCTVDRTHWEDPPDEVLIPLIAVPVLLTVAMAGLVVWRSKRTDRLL
# B1: N-alpha-[(S)-4-Carboxy-4-(19-carboxynonadecanoylamino)butyryl]-Gly-[Arg1,Glu14,His17,Pro37]-pramlintide (peptide)
# peptide: {C20 diacid-γGlu}-GRCNTATCATQRLAEFLHHSSNNFGPILPPTNVGSNTP-NH2
# modifications: disulfide 3-8
# SMILES: CC[C@H](C)[C@H](NC(=O)[C@@H]1CCCN1C(=O)CNC(=O)[C@H](Cc1ccccc1)NC(=O)[C@H](CC(N)=O)NC(=O)[C@H](CC(N)=O)NC(=O)[C@H](CO)NC(=O)[C@H](CO)NC(=O)[C@H](Cc1c[nH]cn1)NC(=O)[C@H](Cc1c[nH]cn1)NC(=O)[C@H](CC(C)C)NC(=O)[C@H](Cc1ccccc1)NC(=O)[C@H](CCC(=O)O)NC(=O)[C@H](C)NC(=O)[C@H](CC(C)C)NC(=O)[C@H](CCCNC(=N)N)NC(=O)[C@H](CCC(N)=O)NC(=O)[C@@H](NC(=O)[C@H](C)NC(=O)[C@@H]1CSSC[C@H](NC(=O)[C@H](CCCNC(=N)N)NC(=O)CNC(=O)CC[C@H](NC(=O)CCCCCCCCCCCCCCCCCCC(=O)O)C(=O)O)C(=O)N[C@@H](CC(N)=O)C(=O)N[C@@H]([C@@H](C)O)C(=O)N[C@@H](C)C(=O)N[C@@H]([C@@H](C)O)C(=O)N1)[C@@H](C)O)C(=O)N[C@@H](CC(C)C)C(=O)N1CCC[C@H]1C(=O)N1CCC[C@H]1C(=O)N[C@H](C(=O)N[C@@H](CC(N)=O)C(=O)N[C@H](C(=O)NCC(=O)N[C@@H](CO)C(=O)N[C@@H](CC(N)=O)C(=O)N[C@H](C(=O)N1CCC[C@H]1C(N)=O)[C@@H](C)O)C(C)C)[C@@H](C)O
# B2: N-alpha-[(S)-4-Carboxy-4-(19-carboxynonadecanoylamino)butyryl]-[His1,Glu14,Arg17,Pro37]-pramlintide (peptide)
# peptide: X1-HCNTATCATQRLAEFLRHSSNNFGPILPPTNVGSNTP-NH2
# modifications: disulfide 2-7
# SMILES: CC[C@H](C)[C@H](NC(=O)[C@@H]1CCCN1C(=O)CNC(=O)[C@H](Cc1ccccc1)NC(=O)[C@H](CC(N)=O)NC(=O)[C@H](CC(N)=O)NC(=O)[C@H](CO)NC(=O)[C@H](CO)NC(=O)[C@H](Cc1c[nH]cn1)NC(=O)[C@H](CCCNC(=N)N)NC(=O)[C@H](CC(C)C)NC(=O)[C@H](Cc1ccccc1)NC(=O)[C@H](CCC(=O)O)NC(=O)[C@H](C)NC(=O)[C@H](CC(C)C)NC(=O)[C@H](CCCNC(=N)N)NC(=O)[C@H](CCC(N)=O)NC(=O)[C@@H](NC(=O)[C@H](C)NC(=O)[C@@H]1CSSC[C@H](NC(=O)[C@H](Cc2c[nH]cn2)NC(=O)CC[C@H](NC(=O)CCCCCCCCCCCCCCCCCCC(=O)O)C(=O)O)C(=O)N[C@@H](CC(N)=O)C(=O)N[C@@H]([C@@H](C)O)C(=O)N[C@@H](C)C(=O)N[C@@H]([C@@H](C)O)C(=O)N1)[C@@H](C)O)C(=O)N[C@@H](CC(C)C)C(=O)N1CCC[C@H]1C(=O)N1CCC[C@H]1C(=O)N[C@H](C(=O)N[C@@H](CC(N)=O)C(=O)N[C@H](C(=O)NCC(=O)N[C@@H](CO)C(=O)N[C@@H](CC(N)=O)C(=O)N[C@H](C(=O)N1CCC[C@H]1C(N)=O)[C@@H](C)O)C(C)C)[C@@H](C)O
# B3: N-alpha-[(S)-4-Carboxy-4-(19-carboxynonadecanoylamino)butyryl]-[Arg1,Glu14,His17,Pro37]-pramlintide (peptide)
# peptide: {C20 diacid-γGlu}-RCNTATCATQRLAEFLHHSSNNFGPILPPTNVGSNTP-NH2
# modifications: disulfide 2-7
# SMILES: CC[C@H](C)[C@H](NC(=O)[C@@H]1CCCN1C(=O)CNC(=O)[C@H](Cc1ccccc1)NC(=O)[C@H](CC(N)=O)NC(=O)[C@H](CC(N)=O)NC(=O)[C@H](CO)NC(=O)[C@H](CO)NC(=O)[C@H](Cc1c[nH]cn1)NC(=O)[C@H](Cc1c[nH]cn1)NC(=O)[C@H](CC(C)C)NC(=O)[C@H](Cc1ccccc1)NC(=O)[C@H](CCC(=O)O)NC(=O)[C@H](C)NC(=O)[C@H](CC(C)C)NC(=O)[C@H](CCCNC(=N)N)NC(=O)[C@H](CCC(N)=O)NC(=O)[C@@H](NC(=O)[C@H](C)NC(=O)[C@@H]1CSSC[C@H](NC(=O)[C@H](CCCNC(=N)N)NC(=O)CC[C@H](NC(=O)CCCCCCCCCCCCCCCCCCC(=O)O)C(=O)O)C(=O)N[C@@H](CC(N)=O)C(=O)N[C@@H]([C@@H](C)O)C(=O)N[C@@H](C)C(=O)N[C@@H]([C@@H](C)O)C(=O)N1)[C@@H](C)O)C(=O)N[C@@H](CC(C)C)C(=O)N1CCC[C@H]1C(=O)N1CCC[C@H]1C(=O)N[C@H](C(=O)N[C@@H](CC(N)=O)C(=O)N[C@H](C(=O)NCC(=O)N[C@@H](CO)C(=O)N[C@@H](CC(N)=O)C(=O)N[C@H](C(=O)N1CCC[C@H]1C(N)=O)[C@@H](C)O)C(C)C)[C@@H](C)O
# B4: N-alpha-[(S)-4-Carboxy-4-(19-carboxynonadecanoylamino)butyryl]-[Glu14,His35]-pramlintide (peptide)
# peptide: {C20 diacid-γGlu}-KCNTATCATQRLAEFLVHSSNNFGPILPPTNVGSHTY-NH2
# modifications: disulfide 2-7
# SMILES: CC[C@H](C)[C@H](NC(=O)[C@@H]1CCCN1C(=O)CNC(=O)[C@H](Cc1ccccc1)NC(=O)[C@H](CC(N)=O)NC(=O)[C@H](CC(N)=O)NC(=O)[C@H](CO)NC(=O)[C@H](CO)NC(=O)[C@H](Cc1c[nH]cn1)NC(=O)[C@@H](NC(=O)[C@H](CC(C)C)NC(=O)[C@H](Cc1ccccc1)NC(=O)[C@H](CCC(=O)O)NC(=O)[C@H](C)NC(=O)[C@H](CC(C)C)NC(=O)[C@H](CCCNC(=N)N)NC(=O)[C@H](CCC(N)=O)NC(=O)[C@@H](NC(=O)[C@H](C)NC(=O)[C@@H]1CSSC[C@H](NC(=O)[C@H](CCCCN)NC(=O)CC[C@H](NC(=O)CCCCCCCCCCCCCCCCCCC(=O)O)C(=O)O)C(=O)N[C@@H](CC(N)=O)C(=O)N[C@@H]([C@@H](C)O)C(=O)N[C@@H](C)C(=O)N[C@@H]([C@@H](C)O)C(=O)N1)[C@@H](C)O)C(C)C)C(=O)N[C@@H](CC(C)C)C(=O)N1CCC[C@H]1C(=O)N1CCC[C@H]1C(=O)N[C@H](C(=O)N[C@@H](CC(N)=O)C(=O)N[C@H](C(=O)NCC(=O)N[C@@H](CO)C(=O)N[C@@H](Cc1c[nH]cn1)C(=O)N[C@H](C(=O)N[C@@H](Cc1ccc(O)cc1)C(N)=O)[C@@H](C)O)C(C)C)[C@@H](C)O
# Molecular target: T1, human amylin 3(a) receptor (human …)
# Test: cell-based or functional assay
row,Amylin receptor human EC50 [nM],Binder
1,0.0515,B1
2,0.0325,B2
3,0.043,B3
4,0.136,B4

# Molecular target: T2, rat calcitonin (a) receptor
# Test: cell-based or functional assay
row,CTa receptor rat EC50 [nM],Binder
1,0.044,B1
2,0.128,B2
3,0.058,B3
4,0.215,B4

# Molecular target: T3, human calcitonin (a) receptor
# Test: cell-based or functional assay
row,CTa receptor human EC50 [nM],Binder
1,0.0455,B1
2,0.0475,B2
3,0.055,B3
4,0.18,B4

# Molecular target: T4, rat amylin 3(a) receptor (rat …)
# Test: cell-based or functional assay
row,Amylin receptor rat EC50 [nM],Binder
1,0.075,B1
2,0.217,B2
3,0.088,B3
4,0.138,B4
